{
  "source": "patent US20090170763A1",
  "about": "(KENJI KANGAWA, published 2009)",
  "binders": {"B1": {"name": "[Cys^3(Octyl)]-Ghrelin (1-7)-amide (peptide)", "peptide": "GSC(Octyl)FLSP-NH2", "modifications": "N-terminus assumed", "SMILES": "CCCCCCCCSC[C@H](NC(=O)[C@H](CO)NC(=O)CN)C(=O)N[C@@H](Cc1ccccc1)C(=O)N[C@@H](CC(C)C)C(=O)N[C@@H](CO)C(=O)N1CCC[C@H]1C(N)=O"}, "B2": {"name": "[Lys^8]-Ghrelin (1-8)-amide (peptide)", "peptide": "GSS(Octanoyl)FLSPK-NH2", "modifications": "N-terminus assumed", "SMILES": "CCCCCCCC(=O)OC[C@H](NC(=O)[C@H](CO)NC(=O)CN)C(=O)N[C@@H](Cc1ccccc1)C(=O)N[C@@H](CC(C)C)C(=O)N[C@@H](CO)C(=O)N1CCC[C@H]1C(=O)N[C@@H](CCCCN)C(N)=O"}, "B3": {"name": "[Aib^1,His^2,^DSer^3(Octyl),^DPhe^4,Lys^5]-Ghrelin (1-5)-amide (peptide)", "peptide": "[Aib]H[dS](Octyl)[dF]K-NH2", "modifications": "N-terminus assumed", "SMILES": "CCCCCCCCOC[C@@H](NC(=O)[C@H](Cc1c[nH]cn1)NC(=O)C(C)(C)N)C(=O)N[C@H](Cc1ccccc1)C(=O)N[C@@H](CCCCN)C(N)=O"}, "B4": {"name": "[Arg^8]-Ghrelin (1-8)-amide (peptide)", "peptide": "GSS(Octanoyl)FLSPR-NH2", "modifications": "N-terminus assumed", "SMILES": "CCCCCCCC(=O)OC[C@H](NC(=O)[C@H](CO)NC(=O)CN)C(=O)N[C@@H](Cc1ccccc1)C(=O)N[C@@H](CC(C)C)C(=O)N[C@@H](CO)C(=O)N1CCC[C@H]1C(=O)N[C@@H](CCCNC(=N)N)C(N)=O"}, "B5": {"name": "[Lys^7]-Ghrelin (1-7)-amide (peptide)", "peptide": "GSS(Octanoyl)FLSK-NH2", "modifications": "N-terminus assumed", "SMILES": "CCCCCCCC(=O)OC[C@H](NC(=O)[C@H](CO)NC(=O)CN)C(=O)N[C@@H](Cc1ccccc1)C(=O)N[C@@H](CC(C)C)C(=O)N[C@@H](CO)C(=O)N[C@@H](CCCCN)C(N)=O"}, "B6": {"name": "[Dap^3(Octanoyl)]-hGhrelin (peptide)", "peptide": "GSXFLSPEHQRVQQRKESKKPPAKLQPR", "modifications": "position 3 (X) is L-2,3-diaminopropionic acid (Dap) with N-octanoyl side chain (CH2NHCO-C7H15)"}, "B7": {"name": "[Lys^5]-Ghrelin (1-5)-amide (peptide)", "peptide": "GSS(Octanoyl)FK-NH2", "modifications": "N-terminus assumed", "SMILES": "CCCCCCCC(=O)OC[C@H](NC(=O)[C@H](CO)NC(=O)CN)C(=O)N[C@@H](Cc1ccccc1)C(=O)N[C@@H](CCCCN)C(N)=O"}, "B8": {"name": "[Aib^1,His^2,Ser^3(Octyl),Lys^5]-Ghrelin (1-5)-amide (peptide)", "peptide": "[Aib]HS(Octyl)FK-NH2", "modifications": "N-terminus assumed", "SMILES": "CCCCCCCCOC[C@H](NC(=O)[C@H](Cc1c[nH]cn1)NC(=O)C(C)(C)N)C(=O)N[C@@H](Cc1ccccc1)C(=O)N[C@@H](CCCCN)C(N)=O"}, "B9": {"name": "[N-Glycyl]-Ghrelin (3-7)-amide (peptide)", "peptide": "GS(Octanoyl)FLSP-NH2", "modifications": "N-terminus assumed", "SMILES": "CCCCCCCC(=O)OC[C@H](NC(=O)CN)C(=O)N[C@@H](Cc1ccccc1)C(=O)N[C@@H](CC(C)C)C(=O)N[C@@H](CO)C(=O)N1CCC[C@H]1C(N)=O"}, "B10": {"name": "[His^2]-Ghrelin (1-7)-amide (peptide)", "peptide": "GHS(Octanoyl)FLSP-NH2", "modifications": "N-terminus assumed", "SMILES": "CCCCCCCC(=O)OC[C@H](NC(=O)[C@H](Cc1c[nH]cn1)NC(=O)CN)C(=O)N[C@@H](Cc1ccccc1)C(=O)N[C@@H](CC(C)C)C(=O)N[C@@H](CO)C(=O)N1CCC[C@H]1C(N)=O"}, "B11": {"name": "[Cys^3(Octyl),^DPhe^4]-Ghrelin (1-7)-amide (peptide)", "peptide": "GSC(Octyl)[dF]LSP-NH2", "modifications": "N-terminus assumed", "SMILES": "CCCCCCCCSC[C@H](NC(=O)[C@H](CO)NC(=O)CN)C(=O)N[C@H](Cc1ccccc1)C(=O)N[C@@H](CC(C)C)C(=O)N[C@@H](CO)C(=O)N1CCC[C@H]1C(N)=O"}, "B12": {"name": "[^DPhe^4,Lys^5]-Ghrelin (1-5)-amide (peptide)", "peptide": "GSS(Octanoyl)[dF]K-NH2", "modifications": "N-terminus assumed", "SMILES": "CCCCCCCC(=O)OC[C@H](NC(=O)[C@H](CO)NC(=O)CN)C(=O)N[C@H](Cc1ccccc1)C(=O)N[C@@H](CCCCN)C(N)=O"}, "B13": {"name": "[Gly^2]-Ghrelin (1-7)-amide (peptide)", "peptide": "GGS(Octanoyl)FLSP-NH2", "modifications": "N-terminus assumed", "SMILES": "CCCCCCCC(=O)OC[C@H](NC(=O)CNC(=O)CN)C(=O)N[C@@H](Cc1ccccc1)C(=O)N[C@@H](CC(C)C)C(=O)N[C@@H](CO)C(=O)N1CCC[C@H]1C(N)=O"}, "B14": {"name": "[Lys^2]-Ghrelin (1-7)-amide (peptide)", "peptide": "GKS(Octanoyl)FLSP-NH2", "modifications": "N-terminus assumed", "SMILES": "CCCCCCCC(=O)OC[C@H](NC(=O)[C@H](CCCCN)NC(=O)CN)C(=O)N[C@@H](Cc1ccccc1)C(=O)N[C@@H](CC(C)C)C(=O)N[C@@H](CO)C(=O)N1CCC[C@H]1C(N)=O"}, "B15": {"name": "[Lys^6]-Ghrelin (1-6)-amide (peptide)", "peptide": "GSS(Octanoyl)FLK-NH2", "modifications": "N-terminus assumed", "SMILES": "CCCCCCCC(=O)OC[C@H](NC(=O)[C@H](CO)NC(=O)CN)C(=O)N[C@@H](Cc1ccccc1)C(=O)N[C@@H](CC(C)C)C(=O)N[C@@H](CCCCN)C(N)=O"}, "B16": {"name": "Ghrelin (1-6)-amide (peptide)", "peptide": "GSS(Octanoyl)FLS-NH2", "modifications": "N-terminus assumed", "SMILES": "CCCCCCCC(=O)OC[C@H](NC(=O)[C@H](CO)NC(=O)CN)C(=O)N[C@@H](Cc1ccccc1)C(=O)N[C@@H](CC(C)C)C(=O)N[C@@H](CO)C(N)=O"}, "B17": {"name": "Ghrelin (1-8)-amide (peptide)", "peptide": "GSS(Octanoyl)FLSPE-NH2", "modifications": "N-terminus assumed", "SMILES": "CCCCCCCC(=O)OC[C@H](NC(=O)[C@H](CO)NC(=O)CN)C(=O)N[C@@H](Cc1ccccc1)C(=O)N[C@@H](CC(C)C)C(=O)N[C@@H](CO)C(=O)N1CCC[C@H]1C(=O)N[C@@H](CCC(=O)O)C(N)=O"}, "B18": {"name": "Ghrelin (1-7)-amide (peptide)", "peptide": "GSS(Octanoyl)FLSP-NH2", "modifications": "N-terminus assumed", "SMILES": "CCCCCCCC(=O)OC[C@H](NC(=O)[C@H](CO)NC(=O)CN)C(=O)N[C@@H](Cc1ccccc1)C(=O)N[C@@H](CC(C)C)C(=O)N[C@@H](CO)C(=O)N1CCC[C@H]1C(N)=O"}, "B19": {"name": "Ghrelin (1-5)-amide (peptide)", "peptide": "GSS(Octanoyl)FL-NH2", "modifications": "N-terminus assumed", "SMILES": "CCCCCCCC(=O)OC[C@H](NC(=O)[C@H](CO)NC(=O)CN)C(=O)N[C@@H](Cc1ccccc1)C(=O)N[C@@H](CC(C)C)C(N)=O"}, "B20": {"name": "Ghrelin (1-4)-amide (peptide)", "peptide": "GSS(Octanoyl)F-NH2", "modifications": "N-terminus assumed", "SMILES": "CCCCCCCC(=O)OC[C@H](NC(=O)[C@H](CO)NC(=O)CN)C(=O)N[C@@H](Cc1ccccc1)C(N)=O"}},
  "note": "Square brackets hold non-standard residues; d marks the D form. Ends that are not written are not given here. * marks the point of attachment. Trt = c1ccc(C(c2ccccc2)(c2ccccc2)*)cc1; Octanoyl = CCCCCCCC(=O)*; Aib = CC(C)(N)C(=O)O; Octyl = CCCCCCCC*",
  "data": [
    {"molecular_target": "T1, rat GHS-R (GHS receptor) expressed on CHO-GHSR62 cells (rat, UniProt O08725 1-364)", "T1 sequence (O08725 whole entry)": "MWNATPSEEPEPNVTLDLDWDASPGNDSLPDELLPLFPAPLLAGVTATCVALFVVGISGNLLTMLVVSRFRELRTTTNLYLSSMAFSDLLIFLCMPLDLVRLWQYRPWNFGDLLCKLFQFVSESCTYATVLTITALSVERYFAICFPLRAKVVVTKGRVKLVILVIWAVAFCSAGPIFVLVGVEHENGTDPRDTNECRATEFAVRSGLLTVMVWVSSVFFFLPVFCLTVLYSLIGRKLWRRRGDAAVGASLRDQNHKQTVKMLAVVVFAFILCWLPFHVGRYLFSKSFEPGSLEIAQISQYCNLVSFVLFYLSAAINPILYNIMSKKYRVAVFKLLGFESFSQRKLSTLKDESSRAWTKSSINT", "test": "cell-based or functional assay", "units": {"Ca-releasing activity (EC50, nM)": "nM"}, "values": [
      {"binder": "GSS(Octanoyl)FLSPEHQK", "note": "[rGhrelin (1-11)]", "Ca-releasing activity (EC50, nM)": 15},
      {"binder": "GSS(Octanoyl)FLSPEHQR", "note": "[hGhrelin (1-11)]", "Ca-releasing activity (EC50, nM)": 15}
    ]},
    {"molecular_target": "rat GHS-R (GHS receptor) expressed on CHO-GHSR62 cells (rat) (UniProt O08725)", "sequence (O08725 whole entry)": "as above", "test": "cell-based or functional assay", "units": {"Ca-releasing activity EC50": "nM", "Activity EC50": "nM", "EC50 value": "nM"}, "values": [
      {"binder": "B1", "Ca-releasing activity EC50": 7.4},
      {"binder": "B2", "Ca-releasing activity EC50": 1.1},
      {"binder": "B3", "Activity EC50": 38},
      {"binder": "B4", "Ca-releasing activity EC50": 1.1},
      {"binder": "GSXFLSPEHQRVQQRKESKKPPAKLQPR (position 3 (X) is 2-aminododecanoic acid (Adod; side chain n-C10H21))", "note": "[[Adod^3]-hGhrelin]", "Activity EC50": 0.91},
      {"binder": "B5", "Activity EC50": 11},
      {"binder": "GST(Octanoyl)FLSPEHQRVQQRKESKKPPAKLQPR", "note": "[[Thr^3(Octanoyl)]-hGhrelin]", "Activity EC50": 10},
      {"binder": "B6", "Activity EC50": 2.6},
      {"binder": "GSDFLSPEHQRVQQRKESKKPPAKLQPR (Asp 3 side-chain heptylamide (NH-C7H15))", "note": "[[Asp^3(NH-Heptyl)]-hGhrelin]", "Activity EC50": 11},
      {"binder": "B7", "Ca-releasing activity EC50": 10},
      {"binder": "GSXFLSPEHQRVQQRKESKKPPAKLQPR (position 3 (X) is cyclohexylalanine (Cha))", "note": "[[Cha^3]-hGhrelin]", "Activity EC50": 19},
      {"binder": "GSXFLSPEHQRVQQRKESKKPPAKLQPR (position 3 (X) is 2-L-naphthylalanine (Nal))", "note": "[[2-^LNal^3]-hGhrelin]", "Activity EC50": 8.2, "EC50 value": 8.2},
      {"binder": "B8", "Activity EC50": 34},
      {"binder": "B9", "Ca-releasing activity EC50": 380},
      {"binder": "B10", "Ca-releasing activity EC50": 35},
      {"binder": "B11", "Ca-releasing activity EC50": 3000},
      {"binder": "GSXFLSPEHQRVQQRKESKKPPAKLQPR (position 3 (X) is 2-D-naphthylalanine (D-Nal))", "note": "[[2-^DNal^3]-hGhrelin]", "Activity EC50": "> 10000"},
      {"binder": "YGSS(Octanoyl)FLSPEHQKAQQRKESKKPPAKLQPR", "note": "[[N-Tyr]-rGhrelin]", "Ca-releasing activity EC50": 120},
      {"binder": "GSC(Octyl)FLSPEHQKAQQRKESKKPPAKLQPR", "note": "[[Cys^3(Octyl)]-rGhrelin]", "Ca-releasing activity EC50": 5.4, "EC50 value": 5.4},
      {"binder": "B12", "Ca-releasing activity EC50": 1700},
      {"binder": "B13", "Ca-releasing activity EC50": 78},
      {"binder": "B14", "Ca-releasing activity EC50": 24},
      {"binder": "GSC(S‑heptyl)FLSPEHQRVQQRKESKKPPAKLQPR", "note": "[[Cys^3(S-Heptyl)]-hGhrelin]", "Activity EC50": 1.4},
      {"binder": "GSC(Trt)FLSPEHQRVQQRKESKKPPAKLQPR", "note": "[[Cys^3(Trityl)]-hGhrelin]", "Activity EC50": 20},
      {"binder": "GSXFLSPEHQRVQQRKESKKPPAKLQPR (position 3 (X) is norleucine (Nle))", "note": "[[Nle^3]-hGhrelin]", "Activity EC50": 2800},
      {"binder": "GSDFLSPEHQRVQQRKESKKPPAKLQPR (Asp 3 side-chain heptyl ester (O-C7H15))", "note": "[[Asp^3(O-Heptyl)]-hGhrelin]", "Activity EC50": 5.1},
      {"binder": "B15", "Ca-releasing activity EC50": 12}
    ]},
    {"molecular_target": "T1, rat GHS-R (GHS receptor) expressed on …", "test": "cell-based or functional assay", "remark": "another data set of the same source", "units": {"Ca-releasing activity EC50": "nM"}, "values": [
      {"binder": "B16", "Ca-releasing activity EC50": 4.8},
      {"binder": "GSS(Octanoyl)FLSPEHQK", "note": "[rGhrelin (1-11)]", "Ca-releasing activity EC50": 15},
      {"binder": "Gly-Ser-Ser(Octanoyl)-NH2 (N-terminus assumed; SMILES CCCCCCCC(=O)OC[C@H](NC(=O)[C@H](CO)NC(=O)CN)C(N)=O)", "note": "[Ghrelin (1-3)-amide]", "Ca-releasing activity EC50": "> 10000"},
      {"binder": "B17", "Ca-releasing activity EC50": 13},
      {"binder": "B18", "Ca-releasing activity EC50": 2.6},
      {"binder": "B19", "Ca-releasing activity EC50": 6.2},
      {"binder": "GSS(Octanoyl)FLSPEHQR", "note": "[hGhrelin (1-11)]", "Ca-releasing activity EC50": 15},
      {"binder": "GSS(Octanoyl)FL", "note": "[Ghrelin (1-5)]", "Ca-releasing activity EC50": 68},
      {"binder": "B20", "Ca-releasing activity EC50": 160}
    ]}
  ]
}
